This passage reports fold less binding than to the RbABC fusion protein results from patent publication US6531296.

The assay has as its target T1, GST-RbC, Rb fusion protein encoding amino acids 780-928 (COOH-terminal domain only) (UniProt P06400).
T1 sequence (looked up): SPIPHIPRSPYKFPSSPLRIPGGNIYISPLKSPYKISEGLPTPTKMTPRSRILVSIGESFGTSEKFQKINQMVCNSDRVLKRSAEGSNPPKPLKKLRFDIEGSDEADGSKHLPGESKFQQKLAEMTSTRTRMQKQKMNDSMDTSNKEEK
In words: in vitro translated Rak on GST-RbC beads, SDS-PAGE and autoradiography (FIG. 5B, upper panel).

B1: Rak protein (p54^rak), full-length nuclear tyrosine kinase (enzyme)
chain: MSNICQRLWEYLEPYLPCLSTEADKSTVIENPGALCSPQSQRHGHYFVALFDYHAPTAEELSFRAGDKLQVLDTLHEGWWFARHLEKRRDGSSQQLQGYIPSNYVAEDRSLQAEAWFFGAIRRSDAEKQLLYSENKTGSFLIRESESQKGEFSLSVLDGAVVKHYRIKRLDEGGFFLTRRRIFSTLNEFVSHYTKTSDGLCVKLGKPCLKIQVPAPFDLSYKTVDQWEIDRNSIQLLKRLGSGQFGEVWEGLWNNTTPVAVKTLKPGSMDPNDFLREAQIMKNLRHPKLIQLYAVCTLEDPIYIITELMRHGSLQEYLQNDTGSKIHLTQQVDMAAQVASGMAYLESRNYIHRDLAARNVLVGEHNIYKVADFGLARVFKVDNEDIYESRHEIKLPVKWTAPEAIRSNKFSIKSDVWSFGILLYEIITYGKMPYSGMTGAQVIQMLAQNYRLPQPSNCPQQFYNIMLECWNAEPKERPTFETLRWKLEDYFETDSSYSDANNFIR
With B1, the fold less binding than to the RbABC fusion protein stood at 5 fold less.
